Publication PMC3913039

Molecular target: recombinant 3x-FLAG-tagged human Sec61α, wild type (human) (UniProt P61619)
Assay: co-IP; Sf21 microsomes with FLAG-Sec61α and Sec61γ solubilised with 1% Deoxy BigChap, anti-FLAG immunoprecipitation, immunoblot beside canine microsomes

UniProt P61619, sequence (P61619 whole entry): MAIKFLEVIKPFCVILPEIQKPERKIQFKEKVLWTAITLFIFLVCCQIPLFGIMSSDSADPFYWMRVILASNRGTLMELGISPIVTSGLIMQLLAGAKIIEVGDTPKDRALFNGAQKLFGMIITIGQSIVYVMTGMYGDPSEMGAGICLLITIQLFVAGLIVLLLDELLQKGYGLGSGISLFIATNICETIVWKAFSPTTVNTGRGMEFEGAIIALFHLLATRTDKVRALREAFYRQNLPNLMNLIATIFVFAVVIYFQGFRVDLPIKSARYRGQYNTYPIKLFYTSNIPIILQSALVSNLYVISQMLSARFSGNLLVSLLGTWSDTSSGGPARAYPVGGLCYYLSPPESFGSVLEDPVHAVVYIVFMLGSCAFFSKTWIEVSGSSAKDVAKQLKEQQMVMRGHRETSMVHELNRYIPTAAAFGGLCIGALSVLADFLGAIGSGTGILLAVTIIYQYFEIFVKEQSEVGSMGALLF

## recombinant untagged human Sec61γ (from UniProt P60059 1-68) (natural protein; other documents disagree on this pair)
  stoichiometry N: 1
